Assay results reported in US20170044259A1 (CYTOMX THERAPEUTICS, published 2017).
Positions count from the first letter of the chain named.

B1: PD-1 1.5 PD010 2001 (antibody, human IgG4 S228P, kappa)
heavy: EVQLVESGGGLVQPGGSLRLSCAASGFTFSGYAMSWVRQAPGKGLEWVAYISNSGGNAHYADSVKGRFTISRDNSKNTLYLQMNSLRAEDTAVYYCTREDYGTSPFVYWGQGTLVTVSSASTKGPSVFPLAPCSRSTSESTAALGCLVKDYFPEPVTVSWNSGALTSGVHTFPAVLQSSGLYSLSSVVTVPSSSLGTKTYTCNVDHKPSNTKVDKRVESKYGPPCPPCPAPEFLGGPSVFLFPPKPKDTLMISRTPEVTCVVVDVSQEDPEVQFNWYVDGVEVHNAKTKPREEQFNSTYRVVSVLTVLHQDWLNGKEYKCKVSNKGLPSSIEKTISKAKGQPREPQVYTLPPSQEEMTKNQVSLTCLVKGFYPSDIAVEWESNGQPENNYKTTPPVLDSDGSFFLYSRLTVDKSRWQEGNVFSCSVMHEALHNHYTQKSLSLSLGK
light: QGQSGQGGLCSWYLSSSGLCVDGGGSSGGSISSGLLSGRSDNHGGGSDIQLTQSPSSLSASVGDRVTITCRASESVDAYGISFMNWFQQKPGKAPKLLIYAASNQGSGVPSRFSGSGSGTDFTLTISSMQPEDFATYYCQQSKDVPWTFGQGTKLEIKRTVAAPSVFIFPPSDEQLKSGTASVVCLLNNFYPREAKVQWKVDNALQSGNSQESVTEQDSKDSTYSLSSTLTLSKADYEKHKVYACEVTHQGLSSPVTKSFNRGEC
B2: PD-1 1.5 PD016 2001 (antibody, human IgG4 S228P, kappa)
heavy: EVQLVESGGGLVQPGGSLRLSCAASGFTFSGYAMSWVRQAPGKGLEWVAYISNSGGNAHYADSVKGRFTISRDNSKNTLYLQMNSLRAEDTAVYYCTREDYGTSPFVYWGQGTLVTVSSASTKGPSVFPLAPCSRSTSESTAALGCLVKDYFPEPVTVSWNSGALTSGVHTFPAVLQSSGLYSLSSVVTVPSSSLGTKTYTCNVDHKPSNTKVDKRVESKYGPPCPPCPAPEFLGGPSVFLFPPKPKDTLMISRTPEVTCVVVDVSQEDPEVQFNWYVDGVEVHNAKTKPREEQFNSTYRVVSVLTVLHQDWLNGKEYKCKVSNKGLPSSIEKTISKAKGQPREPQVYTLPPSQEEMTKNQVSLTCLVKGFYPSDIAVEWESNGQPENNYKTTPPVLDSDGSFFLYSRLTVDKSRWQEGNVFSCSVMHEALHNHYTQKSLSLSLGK
light: B1 light with G8V, S11A, W12A, L14A, S15L, L19I, V21G, D22G
B3: PD-1 1.5 PD014 2001 (antibody, human IgG4 S228P, kappa)
heavy: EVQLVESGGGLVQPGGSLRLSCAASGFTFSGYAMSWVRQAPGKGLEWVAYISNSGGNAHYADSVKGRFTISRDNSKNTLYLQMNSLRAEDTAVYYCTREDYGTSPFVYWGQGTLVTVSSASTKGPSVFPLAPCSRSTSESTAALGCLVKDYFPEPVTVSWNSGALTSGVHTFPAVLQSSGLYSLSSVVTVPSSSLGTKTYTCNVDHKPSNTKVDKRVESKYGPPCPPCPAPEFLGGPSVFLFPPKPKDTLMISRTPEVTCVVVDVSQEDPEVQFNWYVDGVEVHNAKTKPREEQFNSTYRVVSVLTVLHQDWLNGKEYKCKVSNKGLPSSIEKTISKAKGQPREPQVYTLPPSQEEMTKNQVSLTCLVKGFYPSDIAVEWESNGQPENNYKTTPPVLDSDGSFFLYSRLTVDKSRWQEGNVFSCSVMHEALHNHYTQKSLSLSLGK
light: B1 light with G8M, L9S, C10H, S11C, Y13M, L14F, G18C, L19D, C20G, D22K
B4: PD-1 1.5 PD008 2001 (antibody, human IgG4 S228P, kappa)
heavy: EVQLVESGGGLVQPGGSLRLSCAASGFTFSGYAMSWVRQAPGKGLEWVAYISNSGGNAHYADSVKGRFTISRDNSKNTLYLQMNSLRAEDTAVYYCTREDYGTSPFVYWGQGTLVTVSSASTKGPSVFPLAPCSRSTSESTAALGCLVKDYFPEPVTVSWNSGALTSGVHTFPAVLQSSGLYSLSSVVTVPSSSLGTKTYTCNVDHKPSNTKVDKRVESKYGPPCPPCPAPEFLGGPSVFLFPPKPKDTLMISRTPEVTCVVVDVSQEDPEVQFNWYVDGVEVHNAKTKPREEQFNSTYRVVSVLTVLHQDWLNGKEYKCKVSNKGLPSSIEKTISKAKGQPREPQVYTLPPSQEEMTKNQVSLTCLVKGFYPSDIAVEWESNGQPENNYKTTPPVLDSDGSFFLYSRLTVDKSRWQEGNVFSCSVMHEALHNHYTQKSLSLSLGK
light: B1 light with G8E, L9T, S11N, W12Q, L14E, S15R, V21F, D22A
B5: PD-1 1.5 PD023 2001 (antibody, human IgG4 S228P, kappa)
heavy: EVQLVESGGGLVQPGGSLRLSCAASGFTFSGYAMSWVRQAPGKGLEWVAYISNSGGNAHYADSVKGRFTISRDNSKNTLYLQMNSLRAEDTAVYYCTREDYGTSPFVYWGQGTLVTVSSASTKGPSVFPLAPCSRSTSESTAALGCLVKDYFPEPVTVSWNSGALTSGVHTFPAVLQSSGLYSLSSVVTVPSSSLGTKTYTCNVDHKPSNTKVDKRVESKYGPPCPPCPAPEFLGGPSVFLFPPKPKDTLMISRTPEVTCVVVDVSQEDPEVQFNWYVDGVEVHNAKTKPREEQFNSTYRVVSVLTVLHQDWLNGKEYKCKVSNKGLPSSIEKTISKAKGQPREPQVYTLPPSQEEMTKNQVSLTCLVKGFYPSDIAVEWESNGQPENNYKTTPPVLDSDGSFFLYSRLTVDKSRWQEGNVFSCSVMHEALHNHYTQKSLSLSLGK
light: QGQSGQGSMAGCQWSSFCVQRDGGGSSGGSISSGLLSGRSDNHGGGSDIQLTQSPSSLSASVGDRVTITCRASESVDAYGISFMNWFQQKPGKAPKLLIYAASNQGSGVPSRFSGSGSGTDFTLTISSMQPEDFATYYCQQSKDVPWTFGQGTKLEIKRTVAAPSVFIFPPSDEQLKSGTASVVCLLNNFYPREAKVQWKVDNALQSGNSQESVTEQDSKDSTYSLSSTLTLSKADYEKHKVYACEVTHQGLSSPVTKSFNRGEC
B6: PD-1 1.5 PD003 2001 (antibody, human IgG4 S228P, kappa)
heavy: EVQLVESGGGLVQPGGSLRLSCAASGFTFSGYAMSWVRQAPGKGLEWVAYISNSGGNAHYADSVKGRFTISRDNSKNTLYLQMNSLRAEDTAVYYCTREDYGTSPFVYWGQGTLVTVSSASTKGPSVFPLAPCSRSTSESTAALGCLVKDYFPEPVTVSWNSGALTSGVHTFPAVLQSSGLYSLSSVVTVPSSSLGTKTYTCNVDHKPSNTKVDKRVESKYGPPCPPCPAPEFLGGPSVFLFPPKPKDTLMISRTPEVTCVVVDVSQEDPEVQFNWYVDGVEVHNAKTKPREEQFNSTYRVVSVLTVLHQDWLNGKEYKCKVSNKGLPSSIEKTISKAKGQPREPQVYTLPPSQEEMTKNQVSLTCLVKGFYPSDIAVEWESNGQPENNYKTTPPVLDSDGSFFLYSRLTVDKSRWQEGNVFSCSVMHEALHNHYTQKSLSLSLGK
light: B1 light with G8L, L9V, S11P, W12L, L14A, S15L, L19V, V21M, D22G
B7: PD-1 1.5 PD020 2001 (antibody, human IgG4 S228P, kappa)
heavy: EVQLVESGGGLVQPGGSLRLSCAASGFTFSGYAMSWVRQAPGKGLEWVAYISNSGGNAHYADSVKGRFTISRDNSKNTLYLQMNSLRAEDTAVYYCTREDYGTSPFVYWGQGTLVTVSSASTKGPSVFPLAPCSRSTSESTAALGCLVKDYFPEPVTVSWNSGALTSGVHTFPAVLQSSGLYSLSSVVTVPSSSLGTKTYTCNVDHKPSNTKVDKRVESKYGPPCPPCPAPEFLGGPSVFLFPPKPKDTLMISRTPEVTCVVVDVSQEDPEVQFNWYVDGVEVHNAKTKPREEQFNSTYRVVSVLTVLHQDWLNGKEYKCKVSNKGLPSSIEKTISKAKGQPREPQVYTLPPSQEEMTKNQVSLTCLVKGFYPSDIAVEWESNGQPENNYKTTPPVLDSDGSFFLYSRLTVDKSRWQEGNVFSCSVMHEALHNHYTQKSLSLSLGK
light: B1 light with G8S, L9V, S11P, W12M, L14A, S15L, G18M, V21G, D22A
B8: PD-1 1.5 PD013 2001 (antibody, human IgG4 S228P, kappa)
heavy: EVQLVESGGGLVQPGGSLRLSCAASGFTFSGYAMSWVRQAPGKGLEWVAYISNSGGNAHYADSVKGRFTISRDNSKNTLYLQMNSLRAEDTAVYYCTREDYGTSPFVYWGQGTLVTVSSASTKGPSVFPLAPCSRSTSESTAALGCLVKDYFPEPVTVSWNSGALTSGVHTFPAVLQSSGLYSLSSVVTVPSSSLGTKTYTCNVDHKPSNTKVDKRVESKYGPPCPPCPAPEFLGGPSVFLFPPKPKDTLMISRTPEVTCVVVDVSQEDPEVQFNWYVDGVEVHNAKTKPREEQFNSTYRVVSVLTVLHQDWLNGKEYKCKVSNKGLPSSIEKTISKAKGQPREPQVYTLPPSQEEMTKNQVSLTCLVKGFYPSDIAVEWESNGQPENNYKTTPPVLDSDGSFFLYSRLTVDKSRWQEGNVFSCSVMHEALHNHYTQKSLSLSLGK
light: B1 light with G8S, L9C, C10P, S11L, W12Y, Y13V, L14M, S17F, L19G, V21W
B9: A1.5 (antibody, human IgG4 S228P, kappa)
heavy: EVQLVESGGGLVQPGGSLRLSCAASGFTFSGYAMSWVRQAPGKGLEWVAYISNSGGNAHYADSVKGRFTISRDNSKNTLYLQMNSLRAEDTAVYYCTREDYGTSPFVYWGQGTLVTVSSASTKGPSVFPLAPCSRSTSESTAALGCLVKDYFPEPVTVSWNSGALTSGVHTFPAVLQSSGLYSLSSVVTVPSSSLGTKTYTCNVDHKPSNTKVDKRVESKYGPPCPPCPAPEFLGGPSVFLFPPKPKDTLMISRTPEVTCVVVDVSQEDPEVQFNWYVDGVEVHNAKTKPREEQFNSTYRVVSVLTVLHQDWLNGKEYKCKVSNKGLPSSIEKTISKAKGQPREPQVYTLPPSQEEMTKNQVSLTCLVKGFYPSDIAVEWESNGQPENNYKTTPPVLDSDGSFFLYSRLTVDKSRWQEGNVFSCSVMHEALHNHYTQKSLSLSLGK
light: DIQLTQSPSSLSASVGDRVTITCRASESVDAYGISFMNWFQQKPGKAPKLLIYAASNQGSGVPSRFSGSGSGTDFTLTISSMQPEDFATYYCQQSKDVPWTFGQGTKLEIKRTVAAPSVFIFPPSDEQLKSGTASVVCLLNNFYPREAKVQWKVDNALQSGNSQESVTEQDSKDSTYSLSSTLTLSKADYEKHKVYACEVTHQGLSSPVTKSFNRGEC
notes: humanized, full length hIgG4/hKappa; also called A1.5 Ab

The binders below were run against T1, human PD-1-Fc (R and D systems, Minneapolis, Minn.) (human, UniProt Q15116 25-167) (assay: plate ELISA on human PD-1-Fc; apparent KD).
T1 construct: bought; also called hPD-1-Fc; hPD-1; not shown: Fc part of the bought fusion
T1 sequence (Q15116 25-167 limits assumed): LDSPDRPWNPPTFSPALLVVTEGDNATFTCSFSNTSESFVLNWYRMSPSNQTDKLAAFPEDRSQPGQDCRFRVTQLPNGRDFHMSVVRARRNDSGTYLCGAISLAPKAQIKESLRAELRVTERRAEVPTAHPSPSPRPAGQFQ

Q: Which Kd does the source give for B1 here?
A: The Kd was 54 nM.

Q: B2 was tested. Which Kd did it give?
A: The Kd was 57 nM.

Q: B3 was tested. Which Kd did it give?
A: The Kd was 100 nM.

Q: For B4, which Kd is on record?
A: The Kd was 55 nM.

Q: For B5, which Kd is on record?
A: The Kd was 31 nM.

Q: B6 was tested. Which Kd did it give?
A: The Kd was 109 nM.

Q: Which Kd does the source give for B7 here?
A: Its Kd is 77 nM.

Q: With B8 as the binder, how does the Kd read?
A: Its Kd is 151 nM.

Q: Which Kd does the source give for B9 here?
A: The Kd was 1.8 nM.

Each binder was assayed against T1, human PD-1-Fc (R and D systems, …) (assay: plate ELISA on human PD-1-Fc; reference A1.5).

Q: How did the “Masking Efficiency” value turn out when B1 was run?
A: Its value is 30.

Q: For B2, which “Masking Efficiency” value is on record?
A: The value was 32.

Q: For B3, which “Masking Efficiency” value is on record?
A: Its value is 56.

Q: B4 was tested. Which “Masking Efficiency” value did it give?
A: Its value is 31.

Q: With B5 as the binder, how does the “Masking Efficiency” value read?
A: The value was 17.

Q: For B6, which “Masking Efficiency” value is on record?
A: The value was 61.

Q: B7 was tested. Which “Masking Efficiency” value did it give?
A: The value was 43.

Q: How did the “Masking Efficiency” value turn out when B8 was run?
A: The value was 84.
